By half-life is commonly meant how long it takes for the measured level to halve. Low readings indicate fast loss, high ones slow loss. Broadly, the Ki is a measure of affinity in units of concentration, obtained from inhibition or displacement.

The source of these data is patent publication US8236762B2, “Peptide-cytotoxic conjugates” (IPSEN Pharma S.A.S., priority 2006, dated 2012).

A short description of series [1]: Half-life determination in mouse plasma (LC-MS). The format is in vitro ADME. The following applies: 37° C. The procedure:
(§1) Samples containing approximately 50 μg/ml up to and including approximately 500 μg/ml of test compound according to Formula IA or IB or II was added to 450 μl human or mouse plasma, vortexed briefly and incubated at 37° C. At various time intervals, e.g., 0, 0.5, 1, 2, 4, 6, 8, 24, 36 and 48 hours, 50 μl of the compound-plasma mixture was added to 150 μl acetonitrile in a microcentrifuge tube. The mixture was vortexed, centrifuged for 5 minutes at 10K RPM, and 135 μl of supernatant was transferred to an injection vial. The recovered supernatant was analyzed by using a liquid chromatography-mass spectrophotometer system (LC-MS) consisting of a Finnigan Deca XP® mass spectrometer with an ESI probe at the positive ion mode. HPLC separation was carried out on a Luna 3μ C8 (2)® 3×50 mm column with a gradient decreasing from 100% A to 80% B for 10 minutes at a flow rate of 0.25 ml/min. Buffer A was 0.1% acetic acid in water and buffer B was 0.1% acetic acid acetonitrile.

The nature of series [2]: Half-life determination in human plasma (LC-MS). The following applies: 37° C. The series is classed as in vitro ADME. As to the method:
as §1

The target of the next series is T1, hSSTR-1 (Homo sapiens, UniProt P30872).
T1 construct: expressed in transfected cells; host or cells: CHO-K1
T1 sequence (P30872 whole entry): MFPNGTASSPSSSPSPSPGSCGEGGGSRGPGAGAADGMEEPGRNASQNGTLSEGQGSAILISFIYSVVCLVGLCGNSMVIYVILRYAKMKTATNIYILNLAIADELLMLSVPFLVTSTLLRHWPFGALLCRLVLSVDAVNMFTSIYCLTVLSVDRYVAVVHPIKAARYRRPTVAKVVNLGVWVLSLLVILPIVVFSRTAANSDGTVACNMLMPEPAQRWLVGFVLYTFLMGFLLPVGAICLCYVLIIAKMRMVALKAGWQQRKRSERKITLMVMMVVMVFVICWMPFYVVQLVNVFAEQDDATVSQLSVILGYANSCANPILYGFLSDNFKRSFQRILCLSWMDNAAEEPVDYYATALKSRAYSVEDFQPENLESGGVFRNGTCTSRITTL
In words: Somatostatin receptor radioligand binding, hSSTR-1 (CHO-K1 membranes). Particulars: read-out: Ki hSSTR1 ± (SEM). The procedure:
Membranes for in vitro receptor binding assays were obtained by homogenizing (Polytron setting 6, 15 sec) CHO-K1 cells expressing human somatostatin receptor subtypes hSSTR-1, hSSTR-2, hSSTR-3, hSSTR-4 or hSSTR-5 in ice-cold 50 mM Tris-HCl. The homogenized cells were centrifuged twice at 39,000 g for 10 minutes with an intermediate resuspension in fresh buffer. The final pellets were resuspended in 10 mM Tris-HCl to prepare the cell membrane homogenate for use in the binding assay.
The final assay volume was 0.3 ml.
The cell membrane homogenate was incubated with the radioligands for 90 minutes at 25° C. The incubations were terminated by rapid filtration through GF/C filters pre-soaked in 0.3% polyethylenimine using a Brandel® filtration manifold (Gaithersberg, Md., U.S.A.). Each tube and filter was washed three times with 5-ml aliquots of ice-cold buffer. Specific binding was defined as the total radioligand bound minus that bound in the presence of 1000 nM SRIF-14 (for hSSTR-1, hSSTR-3, hSSTR-4 or hSSTR-5), or 1000 nM DPhe-c(Cys-Tyr-D-Trp-Lys-Abu-Cys)-Thr-NH2 for hSSTR-2.

The target of another series is T2, hSSTR-5 (Homo sapiens, UniProt P35346).
T2 construct: expressed in transfected cells; host or cells: CHO-K1
T2 sequence (P35346 whole entry): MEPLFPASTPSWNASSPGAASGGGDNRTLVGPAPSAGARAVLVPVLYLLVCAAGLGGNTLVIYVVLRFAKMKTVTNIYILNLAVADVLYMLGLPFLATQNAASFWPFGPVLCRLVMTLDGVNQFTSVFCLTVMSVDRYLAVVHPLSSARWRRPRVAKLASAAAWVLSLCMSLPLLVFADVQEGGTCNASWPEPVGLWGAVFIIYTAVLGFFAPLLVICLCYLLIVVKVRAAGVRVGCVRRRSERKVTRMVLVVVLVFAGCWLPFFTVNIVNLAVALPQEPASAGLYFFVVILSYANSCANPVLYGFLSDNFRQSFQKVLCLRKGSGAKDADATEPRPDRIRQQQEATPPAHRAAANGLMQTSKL
In words: Somatostatin receptor radioligand binding, hSSTR-5 (CHO-K1 membranes). The following applies: read-out: Ki hSSTR5 ± (SEM).

Another series deals with T3, bombesin/GRP receptor (Rattus norvegicus, UniProt P52500).
T3 construct: AR42J rat pancreas cells expressing the native bombesin/GRP receptor; endogenous in cells; host or cells: AR42J rat pancreas cells
T3 sequence (P52500 whole entry): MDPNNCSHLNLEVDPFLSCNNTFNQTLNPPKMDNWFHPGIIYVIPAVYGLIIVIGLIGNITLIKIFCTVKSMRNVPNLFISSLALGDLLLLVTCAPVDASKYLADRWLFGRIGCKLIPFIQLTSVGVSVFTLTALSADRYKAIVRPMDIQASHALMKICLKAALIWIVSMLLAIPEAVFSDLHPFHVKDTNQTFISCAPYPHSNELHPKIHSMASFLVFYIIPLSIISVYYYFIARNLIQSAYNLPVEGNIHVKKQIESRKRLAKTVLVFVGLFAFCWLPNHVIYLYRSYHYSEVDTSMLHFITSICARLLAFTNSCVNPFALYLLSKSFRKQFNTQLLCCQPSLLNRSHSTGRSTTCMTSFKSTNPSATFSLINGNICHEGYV
In words: Bombesin/GRP radioligand binding (AR42J rat pancreas cell membranes). The following applies: read-out: Ki bombesin receptor ± (SEM). As to the method: Membranes were prepared for radioligand binding studies by homogenization of AR42J rat pancreas cells expressing the native bombesin/GRP receptor in 20 ml of ice-cold 50 mM Tris-HCl with a Brinkman Polytron® (Westbury, N.Y., U.S.A.) at settings of 6, 15 seconds. The homogenates were washed twice by centrifugation (39,000 g/10 minutes) and the final pellets were resuspended in 50 mM Tris-HCl containing 2.5 mM MgCl2 and 0.1% BSA. […] The filters were then washed three times with 5-ml aliquots of ice-cold 50 mM Tris-HCl. The bound radioactivity trapped on the filters was counted by gamma spectrometry (Wallac LKB®, Gaithersburg, Md., U.S.A.).

Numbered stars: 1 amine (or outer) side, 2 acyl side, 3 side chain; on linkers, the order of the positions; unused ones are H or OH. Square brackets hold non-standard residues; d marks the D form. Peptide text beside a SMILES is read from it. * marks the point of attachment. Pipz(1-CH2CO,4-CH2CH2NH) = O=C(CN1CCN(CCN[*:1])CC1)[*:2]; X1 = CC[C@@]1(O*)C(=O)OCc2c1cc1n(c2=O)Cc2cc3ccccc3nc2-1; Suc = O=C(CCC(=O)[*:2])[*:1]; Nle = CCCC[C@H](N)C(=O)O; AEEA = NCCOCCOCC(=O)O; Ava = NCCCCC(=O)O; GABA = NCCCC(=O)O; βAla = NCCC(=O)O A value given as a limit tells only on which side of the number the result lay.

Procedure for hSSTR-5: For the hSSTR-1, hSSTR-3, and hSSTR-4 assays, aliquots of the membrane preparations were incubated for 90 minutes at 25° C. with 0.05 nM [^125I-Tyr11]SRIF-14 in 50 mM HEPES (pH 7.4) buffer containing 0.2% BSA and 5 mM MgCl2. The final assay volume was 0.3 ml. For the hSSTR-2 and hSSTR-5 assays, [^125I]-[4-(2-hydroxyethyl)]-1-piperazinylacetyl-D-Phe-c(Cys-Tyr-D-Trp-Lys-Abu-Cys)-Thr-NH2 (0.05 nM) and [^125I]-D-Phe-c(Cys-Tyr-D-Trp-Lys-Val-Cys)-Thr-NH2 were employed as the radioligands, respectively.

`CC[C@@H]1NC(=O)[C@H](CCCCN)NC(=O)[C@@H](Cc2c[nH]c3ccccc23)NC(=O)[C@H](Cc2ccc(O)cc2)NC(=O)[C@@H](NC(=O)[C@@H](Cc2ccccc2)NC(=O)CN2CCN(CCNC(=O)COCCOCCNC(=O)COCCOCCNC(=O)COCCOCCNC(=O)COCCOCCNC(=O)CCC(=O)NCCCCCCC(=O)O[C@]3(CC)C(=O)OCc4c3cc3n(c4=O)Cc4cc5ccccc5nc4-3)CC2)CSSC[C@@H](C(=O)N[C@H](C(N)=O)[C@@H](C)O)NC1=O` [Example 18, Camptothecin-rvAhp-Suc-(Doc)4-Aepa-D-Phe-cyclo(Cys-Tyr-D-Trp-Lys-Abu-Cys)-Thr-NH2]: the half-life is 16.2 h in series [1] and 8 h in series [2]. For the same molecule, the Ki at hSSTR-1 and on hSSTR-5 was not below 1000 nM throughout.
Consider `CCCC[C@H](NC(=O)[C@H](CC(C)C)NC(=O)[C@H](Cc1c[nH]cn1)NC(=O)CCNC(=O)[C@@H](NC(=O)[C@H](C)NC(=O)[C@H](Cc1c[nH]c2ccccc12)NC(=O)[C@H](CCC(N)=O)NC(=O)[C@H](CC(N)=O)NC(=O)CCCCNC(=O)CN1CCN(CCNC(=O)COCCOCCNC(=O)COCCOCCNC(=O)COCCOCCNC(=O)COCCOCCNC(=O)CCC(=O)NCC(=O)O[C@]2(CC)C(=O)OCc3c2cc2n(c3=O)Cc3cc4ccccc4nc3-2)CC1)C(C)C)C(N)=O` [Example 24, Camptothecin-rvGly-Suc-(Doc)4-Aepa-Apn-Asn-Gln-Trp-Ala-Val-β-Ala-His-Leu-Nle-NH2] ({X1-Gly-Suc-AEEA-AEEA-AEEA-AEEA}-[Pipz(1-CH2CO,4-CH2CH2NH)][Ava]NQWAV[βAla]HL[Nle]-NH2), for which the half-life is 2.6 h in series [1] and 4.6 h in series [2]. The Ki on bombesin/GRP receptor amounted to 4.07 nM.
Regarding `CCCC[C@H](NC(=O)[C@H](CC(C)C)NC(=O)[C@H](Cc1c[nH]cn1)NC(=O)CCNC(=O)[C@@H](NC(=O)[C@H](C)NC(=O)[C@H](Cc1c[nH]c2ccccc12)NC(=O)[C@H](CCC(N)=O)NC(=O)[C@@H](Cc1ccc(O)cc1)NC(=O)[C@@H](CO)NC(=O)CN1CCN(CCNC(=O)COCCOCCNC(=O)COCCOCCNC(=O)COCCOCCNC(=O)COCCOCCNC(=O)CCC(=O)NCC(=O)O[C@]2(CC)C(=O)OCc3c2cc2n(c3=O)Cc3cc4ccccc4nc3-2)CC1)C(C)C)C(N)=O` [Example 27, Camptothecin-rvGly-Suc-(Doc)4-Aepa-D-Ser-D-Tyr-Gln-Trp-Ala-Val-β-Ala-His-Leu-Nle-NH2] ({X1-Gly-Suc-AEEA-AEEA-AEEA-AEEA}-[Pipz(1-CH2CO,4-CH2CH2NH)][dS][dY]QWAV[βAla]HL[Nle]-NH2), the half-life in series [1] was 3.8 h; in series [2], 4.5 h. In addition, the Ki on bombesin/GRP receptor is 3.96 nM.
For the molecule `CCCC[C@H](NC(=O)[C@H](CC(C)C)NC(=O)[C@H](Cc1c[nH]cn1)NC(=O)CCNC(=O)[C@@H](NC(=O)[C@H](C)NC(=O)[C@H](Cc1c[nH]c2ccccc12)NC(=O)[C@H](CCC(N)=O)NC(=O)CCCCCNC(=O)CN1CCN(CCNC(=O)COCCOCCNC(=O)COCCOCCNC(=O)COCCOCCNC(=O)COCCOCCNC(=O)CCC(=O)NCC(=O)O[C@]2(CC)C(=O)OCc3c2cc2n(c3=O)Cc3cc4ccccc4nc3-2)CC1)C(C)C)C(N)=O` [Example 21, Camptothecin-rvGly-Suc-(Doc)4-Aepa-Ahx-Gln-Trp-Ala-Val-β-Ala-His-Leu-Nle-NH2], the half-life in series [1] is 5.4 h; in series [2], 3.2 h. For the same molecule, the Ki at bombesin/GRP receptor is 1.9 nM.
Consider `CC[C@@H]1NC(=O)[C@H](CCCCN)NC(=O)[C@@H](Cc2c[nH]c3ccccc23)NC(=O)[C@H](Cc2ccc(O)cc2)NC(=O)[C@@H](NC(=O)[C@@H](Cc2ccccc2)NC(=O)CN2CCN(CCNC(=O)COCCOCCNC(=O)COCCOCCNC(=O)COCCOCCNC(=O)COCCOCCNC(=O)CCC(=O)NCCCCCCCCC(=O)O[C@]3(CC)C(=O)OCc4c3cc3n(c4=O)Cc4cc5ccccc5nc4-3)CC2)CSSC[C@@H](C(=O)N[C@H](C(N)=O)[C@@H](C)O)NC1=O` [Example 17, Camptothecin-rvAnc-Suc-(Doc)4-Aepa-D-Phe-cyclo(Cys-Tyr-D-Trp-Lys-Abu-Cys)-Thr-NH2], for which the half-life was 15.6 h in series [1] and 28.6 h in series [2]. Besides, the Ki on hSSTR-1 and at hSSTR-5 was not below 1000 nM throughout.
As to `CCCC[C@H](NC(=O)[C@H](CC(C)C)NC(=O)[C@H](Cc1c[nH]cn1)NC(=O)CCNC(=O)[C@@H](NC(=O)[C@H](C)NC(=O)[C@H](Cc1c[nH]c2ccccc12)NC(=O)[C@H](CCC(N)=O)NC(=O)[C@H](CC(N)=O)NC(=O)CCCNC(=O)CN1CCN(CCNC(=O)COCCOCCNC(=O)COCCOCCNC(=O)COCCOCCNC(=O)COCCOCCNC(=O)CCC(=O)NCC(=O)O[C@]2(CC)C(=O)OCc3c2cc2n(c3=O)Cc3cc4ccccc4nc3-2)CC1)C(C)C)C(N)=O` [Example 23, Camptothecin-rvGly-Suc-(Doc)4-Aepa-Gaba-Asn-Gln-Trp-Ala-Val-β-Ala-His-Leu-Nle-NH2] ({X1-Gly-Suc-AEEA-AEEA-AEEA-AEEA}-[Pipz(1-CH2CO,4-CH2CH2NH)][GABA]NQWAV[βAla]HL[Nle]-NH2), the half-life in series [1] is 2.9 h; in series [2], 4.2 h. The inhibitory constant (Ki) on bombesin/GRP receptor is 7.65 nM.
For `CCCC[C@H](NC(=O)[C@H](CC(C)C)NC(=O)[C@H](Cc1c[nH]cn1)NC(=O)CCNC(=O)[C@@H](NC(=O)[C@H](C)NC(=O)[C@H](Cc1c[nH]c2ccccc12)NC(=O)[C@H](CCC(N)=O)NC(=O)[C@H](CCCC)NC(=O)CN1CCN(CCNC(=O)COCCOCCNC(=O)COCCOCCNC(=O)COCCOCCNC(=O)COCCOCCNC(=O)CCC(=O)NCC(=O)O[C@]2(CC)C(=O)OCc3c2cc2n(c3=O)Cc3cc4ccccc4nc3-2)CC1)C(C)C)C(N)=O` [Example 20, Camptothecin-rvGly-Suc-(Doc)4-Aepa-Nle-Gln-Trp-Ala-Val-β-Ala-His-Leu-Nle-NH2] ({X1-Gly-Suc-AEEA-AEEA-AEEA-AEEA}-[Pipz(1-CH2CO,4-CH2CH2NH)][Nle]QWAV[βAla]HL[Nle]-NH2), the results for the half-life in series [1] and in series [2] were 2.8 h and 4.8 h, respectively. Besides, on bombesin/GRP receptor, the Ki stood at 4.57 nM.
On to `CCCC[C@H](NC(=O)[C@H](CC(C)C)NC(=O)[C@H](Cc1c[nH]cn1)NC(=O)CCNC(=O)[C@@H](NC(=O)[C@H](C)NC(=O)[C@H](Cc1c[nH]c2ccccc12)NC(=O)[C@H](CCC(N)=O)NC(=O)CCCNC(=O)[C@H](CC(C)C)NC(=O)CN1CCN(CCNC(=O)COCCOCCNC(=O)COCCOCCNC(=O)COCCOCCNC(=O)COCCOCCNC(=O)CCC(=O)NCC(=O)O[C@]2(CC)C(=O)OCc3c2cc2n(c3=O)Cc3cc4ccccc4nc3-2)CC1)C(C)C)C(N)=O` [Example 22, Camptothecin-rvGly-Suc-(Doc)4-Aepa-Leu-Gaba-Gln-Trp-Ala-Val-β-Ala-His-Leu-Nle-NH2] ({X1-Gly-Suc-AEEA-AEEA-AEEA-AEEA}-[Pipz(1-CH2CO,4-CH2CH2NH)]L[GABA]QWAV[βAla]HL[Nle]-NH2), for which the half-life in series [1] is 2.1 h; in series [2] it was 1.8 h. Besides, on bombesin/GRP receptor, the inhibition constant (Ki) came out at 18.2 nM.
